Measurements as given in patent publication US20130143798A1 (Novo Nordisk, published 2013).
Numbered stars: 1 amine (or outer) side, 2 acyl side, 3 side chain; on linkers, the order of the positions; unused ones are H or OH. Side chains are listed from the residue outwards. Ends that are not written are not given here. * marks the point of attachment. C18 diacid = O=C(O)CCCCCCCCCCCCCCCCC(=O)*; γGlu = O=C(O)[C@H](CCC(=O)[*:2])N[*:1]; AEEA = NCCOCCOCC(=O)O

Target: glucagon receptor (UniProt P47871 26-477, limits assumed)
Sequence (P47871 26-477 limits assumed): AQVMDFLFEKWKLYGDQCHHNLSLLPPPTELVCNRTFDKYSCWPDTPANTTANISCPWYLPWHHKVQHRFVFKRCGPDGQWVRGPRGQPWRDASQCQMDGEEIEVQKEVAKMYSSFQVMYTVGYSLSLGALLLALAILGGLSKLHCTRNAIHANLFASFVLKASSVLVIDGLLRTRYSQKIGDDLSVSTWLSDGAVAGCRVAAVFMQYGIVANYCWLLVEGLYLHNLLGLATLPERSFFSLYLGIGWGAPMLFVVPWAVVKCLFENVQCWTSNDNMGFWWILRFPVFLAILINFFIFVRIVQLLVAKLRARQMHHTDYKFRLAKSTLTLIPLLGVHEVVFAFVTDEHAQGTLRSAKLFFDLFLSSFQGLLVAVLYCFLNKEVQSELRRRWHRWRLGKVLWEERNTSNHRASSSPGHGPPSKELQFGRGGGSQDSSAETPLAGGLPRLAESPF
Assay: cell-based or functional assay

Assay (I) Glucagon [EC50] [nM]	Binder
0.016	HSQGTFTSDYSKYLDSKRAQEFVK([AEEA-AEEA-γGlu-C18 diacid])WLLNT-NH2 (N-terminus assumed; SMILES CC(C)C[C@H](NC(=O)[C@H](Cc1ccc(O)cc1)NC(=O)[C@H](CCCCN)NC(=O)[C@H](CO)NC(=O)[C@H](Cc1ccc(O)cc1)NC(=O)[C@H](CC(=O)O)NC(=O)[C@H](CO)NC(=O)[C@@H](NC(=O)[C@H](Cc1ccccc1)NC(=O)[C@@H](NC(=O)CNC(=O)[C@H](CCC(N)=O)NC(=O)[C@H](CO)NC(=O)[C@@H](N)Cc1c[nH]cn1)[C@@H](C)O)[C@@H](C)O)C(=O)N[C@@H](CC(=O)O)C(=O)N[C@@H](CO)C(=O)N[C@@H](CCCCN)C(=O)N[C@@H](CCCNC(=N)N)C(=O)N[C@@H](C)C(=O)N[C@@H](CCC(N)=O)C(=O)N[C@@H](CCC(=O)O)C(=O)N[C@@H](Cc1ccccc1)C(=O)N[C@H](C(=O)N[C@@H](CCCCNC(=O)COCCOCCNC(=O)COCCOCCNC(=O)CC[C@H](NC(=O)CCCCCCCCCCCCCCCCC(=O)O)C(=O)O)C(=O)N[C@@H](Cc1c[nH]c2ccccc12)C(=O)N[C@@H](CC(C)C)C(=O)N[C@@H](CC(C)C)C(=O)N[C@@H](CC(N)=O)C(=O)N[C@H](C(N)=O)[C@@H](C)O)C(C)C)
0.048	HSQGTFTSDYSKYLDEKAAQEFVK([AEEA-AEEA-γGlu-C18 diacid])WLLNT-NH2 (N-terminus assumed; SMILES CC(C)C[C@H](NC(=O)[C@H](Cc1ccc(O)cc1)NC(=O)[C@H](CCCCN)NC(=O)[C@H](CO)NC(=O)[C@H](Cc1ccc(O)cc1)NC(=O)[C@H](CC(=O)O)NC(=O)[C@H](CO)NC(=O)[C@@H](NC(=O)[C@H](Cc1ccccc1)NC(=O)[C@@H](NC(=O)CNC(=O)[C@H](CCC(N)=O)NC(=O)[C@H](CO)NC(=O)[C@@H](N)Cc1c[nH]cn1)[C@@H](C)O)[C@@H](C)O)C(=O)N[C@@H](CC(=O)O)C(=O)N[C@@H](CCC(=O)O)C(=O)N[C@@H](CCCCN)C(=O)N[C@@H](C)C(=O)N[C@@H](C)C(=O)N[C@@H](CCC(N)=O)C(=O)N[C@@H](CCC(=O)O)C(=O)N[C@@H](Cc1ccccc1)C(=O)N[C@H](C(=O)N[C@@H](CCCCNC(=O)COCCOCCNC(=O)COCCOCCNC(=O)CC[C@H](NC(=O)CCCCCCCCCCCCCCCCC(=O)O)C(=O)O)C(=O)N[C@@H](Cc1c[nH]c2ccccc12)C(=O)N[C@@H](CC(C)C)C(=O)N[C@@H](CC(C)C)C(=O)N[C@@H](CC(N)=O)C(=O)N[C@H](C(N)=O)[C@@H](C)O)C(C)C)
0.033	HSQGTFTSDYSKYLDSKAAQEFVK([AEEA-AEEA-γGlu-C18 diacid])WLLNT-NH2 (N-terminus assumed; SMILES CC(C)C[C@H](NC(=O)[C@H](Cc1ccc(O)cc1)NC(=O)[C@H](CCCCN)NC(=O)[C@H](CO)NC(=O)[C@H](Cc1ccc(O)cc1)NC(=O)[C@H](CC(=O)O)NC(=O)[C@H](CO)NC(=O)[C@@H](NC(=O)[C@H](Cc1ccccc1)NC(=O)[C@@H](NC(=O)CNC(=O)[C@H](CCC(N)=O)NC(=O)[C@H](CO)NC(=O)[C@@H](N)Cc1c[nH]cn1)[C@@H](C)O)[C@@H](C)O)C(=O)N[C@@H](CC(=O)O)C(=O)N[C@@H](CO)C(=O)N[C@@H](CCCCN)C(=O)N[C@@H](C)C(=O)N[C@@H](C)C(=O)N[C@@H](CCC(N)=O)C(=O)N[C@@H](CCC(=O)O)C(=O)N[C@@H](Cc1ccccc1)C(=O)N[C@H](C(=O)N[C@@H](CCCCNC(=O)COCCOCCNC(=O)COCCOCCNC(=O)CC[C@H](NC(=O)CCCCCCCCCCCCCCCCC(=O)O)C(=O)O)C(=O)N[C@@H](Cc1c[nH]c2ccccc12)C(=O)N[C@@H](CC(C)C)C(=O)N[C@@H](CC(C)C)C(=O)N[C@@H](CC(N)=O)C(=O)N[C@H](C(N)=O)[C@@H](C)O)C(C)C)
